In PMC5582856, “Inverted stereocontrol of iridoid synthase in snapdragon” (The Journal of Biological Chemistry, 2017):

Substrate: C/C(C=O)=C\CC/C(C)=C/C=O
Assay: purified protein
Type: biochemical, Antirrhinum majus
Settings: 50 μM NADPH fixed, 200 mM MOPS pH 7.0, 100 mM NaCl, 1% THF, 25 °C, 20 nM enzyme

B1: AmISY (Am18679), Antirrhinum majus iridoid synthase (Antirrhinum majus) (protein)
chain: MSWWYRRSIGETEQKRIEINGVSPTYQSVALIVGVTGIAGSGLAETLSFSDTPGGPWKVYGVARRPCPKWLAKLNVNYVQCDIANTDETYSKVAPLTDITHIFYVSWTGSEDVALNTLMFKNILDSVIPNAPNLKHVSLQTGIKYYWGNMAEMDSTNQPHECPFYENMPRLKQDNFYYNLEDLVYDSAVRKNGLSWSIHRPALIFGFSPCSMMNTVSTLCVYAAICKHENKPLVYTGTETSWTCLWDAVDSDLLAEHFLWAATVPNAKNQAFNINNGDVFKWKHMWKVLAKEFDIEAIGYEGKEPVLLEDLMKDKDSVWDEIVKKHDLVPTKLRDIAAFWLADVVFRNKETLCSMNKNKEFGFMGFRDTTKSFVSSINKMRDFKFIP
notes: GenBank record is one of MF281392-MF281395 (not assigned in the text)
Km: 1.1 ± 0.1 µM | kcat: 0.72 ± 0.02 s⁻¹
